Test results from publication PMC4103548, “Expression, and Molecular and Enzymatic Characterization of Cu-Containing Nitrite Reductase from a Marine Ammonia-Oxidizing Gammaproteobacterium, Nitrosococcus oceani” (Microbes and Environments, 2012).

Substrate: O=NO
Test: nitrite consumption, diazo-coupling colorimetric assay; Hanes-Woolf plot
Type: biochemical, Nitrosococcus oceani
Conditions: reduced methylviologen (dithionite) as electron donor, pH 5.5 (optimal), 30 mM CPT buffer, 37°C, under mineral oil, kcat per subunit

B1: Cu-containing nitrite reductase (recombinant NirK) from Nitrosococcus oceani NS58 (Nitrosococcus oceani ATCC 19707) (protein)
chain: ADGEASSYIANIGTHANLKDLERVRQELVAPPHLPDHQQAYSGKPRIVEIEMVIEEKEVEIEPNVFVQAMTFNGTNPGPIIVVHEGDYVELTLKNLDTNMLLHNIDFHPATGALGGGALTKVAPGQQVTLRFKADKAGTYVYHCAPGGLMTPYHVVSGMYGAIMIFPKKGLRDQNGKKVTYDKAYYVGEQGWYIPKDKNGKYKRYANAIEPYGDTLEVMRGLVPTHVTYNGSKGALTGDNAMKAKVGDSVLFIHSQANEDSRIHLIGGHGDLVWPGGSFKNTPMVDKETWHVNGGESVAALYTFKQPGLYAYLNHNLIQAFMLGGAAHVKVDGEWNNDLMEQVVKPSPINAD
With B1 the Km was 52 µM and the kcat was 1600 s⁻¹.
